Results on 2 molecules are retold here after PMC11296239.

The target of one series is T1, RORα (mouse, UniProt P51448 1-523).
T1 sequence: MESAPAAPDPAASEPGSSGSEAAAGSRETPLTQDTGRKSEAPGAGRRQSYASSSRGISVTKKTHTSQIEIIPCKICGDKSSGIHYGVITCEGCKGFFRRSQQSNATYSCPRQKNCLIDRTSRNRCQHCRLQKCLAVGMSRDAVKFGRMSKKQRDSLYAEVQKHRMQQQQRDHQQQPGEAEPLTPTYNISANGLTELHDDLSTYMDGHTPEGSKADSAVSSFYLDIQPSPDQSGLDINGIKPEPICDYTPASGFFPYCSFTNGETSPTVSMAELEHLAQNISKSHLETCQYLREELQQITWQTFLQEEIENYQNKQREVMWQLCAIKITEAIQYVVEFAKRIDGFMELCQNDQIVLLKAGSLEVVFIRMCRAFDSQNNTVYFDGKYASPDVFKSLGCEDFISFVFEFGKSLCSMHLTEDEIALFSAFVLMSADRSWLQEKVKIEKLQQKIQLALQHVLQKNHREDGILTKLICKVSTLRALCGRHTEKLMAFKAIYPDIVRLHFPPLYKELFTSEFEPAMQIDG
Nature of the series: EMSA. For orientation: A gel shift assay detects complexes by their altered migration in electrophoresis.

Another series deals with T2, Rev-erbα (mouse, UniProt Q3UV55 1-615).
T2 sequence: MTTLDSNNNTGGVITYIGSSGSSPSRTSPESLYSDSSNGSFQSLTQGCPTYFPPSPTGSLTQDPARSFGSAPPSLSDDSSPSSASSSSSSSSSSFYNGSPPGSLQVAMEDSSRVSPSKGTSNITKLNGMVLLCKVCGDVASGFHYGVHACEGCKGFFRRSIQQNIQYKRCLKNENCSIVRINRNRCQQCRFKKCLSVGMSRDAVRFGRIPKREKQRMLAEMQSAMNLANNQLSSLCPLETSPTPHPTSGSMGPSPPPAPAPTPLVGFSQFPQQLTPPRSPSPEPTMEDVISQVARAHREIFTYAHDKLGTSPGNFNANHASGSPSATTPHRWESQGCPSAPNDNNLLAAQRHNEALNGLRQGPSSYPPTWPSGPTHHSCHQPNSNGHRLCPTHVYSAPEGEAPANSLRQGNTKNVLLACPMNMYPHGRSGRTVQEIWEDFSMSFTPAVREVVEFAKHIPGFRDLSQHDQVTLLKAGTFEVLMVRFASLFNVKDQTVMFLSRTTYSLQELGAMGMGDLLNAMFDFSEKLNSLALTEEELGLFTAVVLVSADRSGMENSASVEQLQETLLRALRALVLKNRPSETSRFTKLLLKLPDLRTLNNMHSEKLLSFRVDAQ
Nature of the series: EMSA.

B1: mut h-RRE2 (dsDNA)
DNA 1: TCACCTGCTTGACGGCTTGACAGACCG
DNA 2: CGGTCTGTCAAGCCGTCAAGCAGGTGA
Take B1: the binding result with RORα and with Rev-erbα was “no binding” each time.

B2: mut h-RRE1 (dsDNA)
DNA 1: TTCCTCAACAGCCGATACATTGTTTC
DNA 2: GAAACAATGTATCGGCTGTTGAGGAA
Consider B2, for which the binding result in the series with RORα and with Rev-erbα was “no binding” each time.
